Stoichiometry N data for one substance are collected here from article doi:10.1101/2022.11.23.517751.

The target of the assay is VZV gB[H527P] on extracellular vesicles (EVs) from BHK-21 cells (varicella-zoster virus (VZV)) (UniProt Q4JR05). Nature of the assay: cryo-EM structure.

Broadly, the stoichiometry N is the number of molecules, sites or subunits per partner or assembly. In the case of “VZV gB[H527P] on extracellular vesicles (EVs) from BHK-21 cells (from UniProt Q4JR05 72-931) (natural protein)”, the stoichiometry N was 3.
